Experimental findings from publication PMC6534634, “Understanding xylose isomerase from Burkholderia cenocepacia: insights into structure and functionality for ethanol production” (AMB Express, 2019) are described below.

The target of data set [1] is T1, XylABc (XylA, xylose isomerase from Burkholderia cenocepacia) (Burkholderia cenocepacia, UniProt B4ENA5).
T1 construct: full-length, synthetic gene in pTrcHis-B, His6 fusion (tag apparently kept), E. coli TOP10, Ni resin + Superdex 200; homotetramer ca. 208 kDa
T1 sequence (B4ENA5 1-440): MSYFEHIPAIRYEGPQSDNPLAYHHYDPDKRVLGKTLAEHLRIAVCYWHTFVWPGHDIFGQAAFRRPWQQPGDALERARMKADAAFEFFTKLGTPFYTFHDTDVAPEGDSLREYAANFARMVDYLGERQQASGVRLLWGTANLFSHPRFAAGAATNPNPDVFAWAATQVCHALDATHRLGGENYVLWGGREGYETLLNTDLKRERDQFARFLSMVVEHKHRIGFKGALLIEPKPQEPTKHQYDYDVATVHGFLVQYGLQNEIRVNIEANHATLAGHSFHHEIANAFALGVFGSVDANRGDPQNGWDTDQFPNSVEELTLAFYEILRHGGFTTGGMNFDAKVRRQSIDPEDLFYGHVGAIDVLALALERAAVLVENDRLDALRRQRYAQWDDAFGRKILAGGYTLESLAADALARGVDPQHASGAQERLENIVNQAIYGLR
In words: sorbitol dehydrogenase-coupled NADH oxidation, […] nm. The data set is classed as biochemical.

Data set [2] concerns the molecule itself. In words: SDS-PAGE (SDS-resistant oligomer); SDS-PAGE (5% stacking, 12% resolving) after size exclusion; loading dye with 8 M urea, 4% SDS, 100 mM beta-mercaptoethanol; bands identified by LC-MS/MS; dimer beside monomer. (In gel filtration, larger molecules generally elute earlier.)
Data set [3] concerns the molecule itself. In words: native gel or EMSA; non-denaturing 4-20% gradient PAGE of the pooled Superdex 200 peak of His6-XylA, SDS-free sample and running buffers, standards 10-250 kDa; band identified by LC-MS/MS; tetramer. A general note: Mobility shift assays separate free from complexed probe on a gel.

In data set [1], `OC[C@@H](O)[C@H](O)[C@@H](O)CO` [xylitol] gave an IC50 of 3.75 mM.

B1: Xylose isomerase from Burkholderia cenocepacia (His6-XylA fusion protein) (enzyme, Burkholderia cenocepacia J2315, UniProt B4ENA5 1-440, looked up)
chain: T1 sequence (B4ENA5 1-440)
notes: Xylose isomerase XylA of Burkholderia cenocepacia J2315, full-length gene made as synthetic DNA, cloned HindIII/BglII into pTrcHis-B; The fusion has a printed theoretical mass of 53,598.67 Da; also called XylABc; XI; source: E. coli TOP10, purified (Ni2+ resin, Superdex 200)
Take B1: the results for the “stoichiometry N” value in data set [2] and in data set [3] were 2 and 4, respectively.

For orientation: IC50 means the concentration needed to halve the response being measured. By stoichiometry N is commonly meant the number of molecules, sites or subunits per partner or assembly.
